Assay: yeast display, Sf9 membrane polyspecificity reagent, FACS + sequencing; frameworks hold sequencing errors
In short: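 Synthetic nanobody libraries on Saccharomyces cerevisiae BJ5465 were galactose-induced for 36–48 hours, stained 1 hour at 4 °C with 10% biotinylated, detergent-solubilized Sf9 membrane reagent and enriched on streptavidin microbeads. FACS then separated cells into low and high (top ~1%) gates by anti-HA (expression) and streptavidin (reagent binding) fluorescence. Genes were colony-PCR amplified, MiSeq 2 × 250 sequenced and CDR-length filtered. A clone's polyreactivity label is that of its gate of origin.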

Sequence | polyreactivity (PSR sort gate)
QVQLVESGGGLVQAGGSLRLSCAASGITFKYNAMAWYRQAPGKEMELVAAISSGGNTYYADSVKGRFTISRDNAKNTVYLQMNSLKPEDTAVYYCAAPSYDTLWHDYWGQGTQVTVSS | low polyreactivity
QVQLVESGGGLVQAGGSLRLSCAASGITFKYYAMGWYRQAPGKERELVAAITSGTRTNYADSVKGRFTISRDNAKNTVYLQMNSLKPEDTAVYYCAKVGSWYTSHRFGYWGHGTQVTVSS | high polyreactivity
QVQLVESGGGLVQAGGSLRLSCAASGITFLDNDMGWYRQAPVKERELVAAITSGVSTYYADSVKGRFTISRDNAKNTVYLQMNSLKPEDTAVYYCAADRPDVAGDYGGQGTQVTVSS | low polyreactivity
QVQLVESGGGLVQAGGSLRLSCAASGITFLDNVMGWYRQAPGKERELVADINSIGTSTSYADSVKGRFTISRDNAKNTVYLQMNSLKPEDTAVYYCAADTGLEDYDYWGQGTQVTVSS | low polyreactivity
QVQLVESGGGLVQAGGSLRLSCAASGITFLNYAMGWYRQAPGKERELVAAISWSGGRTYYADSVKGRFTISRDNGKNTVYLQMNSLKPEDTAVYYCAADRGVNSYGYWGQGTQVTVSS | high polyreactivity
QVQLVESGGGLVQAGGSLRLSCAASGITFLNYAMGWYRQAPGKERELVAAISWSRGRTYYADSVKGRFTISRDNAKNTGYLQMNSLKPEDTAVYDCAADRGVNSYGYWGQGTQVTVSS | high polyreactivity
QVQLVESGGGLVQAGGSLRLSCAASGITFLSNAMGWYRQAPGKERELVAAISRGGGTTYYADSVKGRFTISRDNAKNTVYLQMNSLKPEDTAVYYCATESTHTRRSWYEYWGQGTQVTVSS | high polyreactivity
QVQLVESGGGLVQAGGSLRLSCAASGITFLVYVMGWYRQAPGKERELVAAISSGGSTYYADSVKGRFTISRDNAKNTVYVQMNSLKPEDTAVYYCAAERKLYGLYDYWGQGTQVTVSS | low polyreactivity
QVQLVESGGGLVQAGGSLRLSCAASGITFNDYTMGWYRQGPGKERELVAVNTKTGSRTYYADSVKGRFTISRDNAKNTVYLQMNSLKPEDTAVYYCNALYYIHYYQGYGYWGQGTQVTVSS | high polyreactivity
QVQLVESGGGLVQAGGSLRLSCAASGITFNQYVMGWYRQAPGKESELVAAISRSGATTYYADSVKGRFTISRDNAKNTVYLQMNSLKPEDTAVYYCAVRGSVSYTRYGYWGQGTQVTVSS | high polyreactivity
QVQLVESGGGLVQAGGSLRLSCAASGITFNRNAMGWYRQAPGKERELVAAISSDGNTNYADSVKGRFTISRDNAKNTVYLQMNSLKPEDTAVYYCAAPVIQITDVWYDAETYPDYDYWGQGTQVTVSS | low polyreactivity
QVQLVESGGGLVQAGGSLRLSCAASGITFNSYAKGWYRQAPGKERELVASISWIGGSTYYADSVKLRFTISRDNAKNTVYLQMNSLKPEDTAVYYCAVDKGTDYYYEVDYWGQGTQVTVSS | low polyreactivity
QVQLVESGGGLVQAGGSLRLSCAASGITFNVYAMGWYRQAPGKERELVAAISYNGGRTYYADSVKGRFTISRDNAKNTVYLPMNSLKPEDTAVYYCAAQWPWGPYDYWGQGTQVTVSS | high polyreactivity
QVQLVESGGGLVQAGGSLRLSCAASGITFNYYAMGWYRQAPGKERELVATINRSGGTTYYADSVKGRITISRDNAKNTVYLQMNSLKPEDTAVYYCNARYTSRGRYHSGYDYWGQGTQVTVSS | high polyreactivity
QVQLVESGGGLVQAGGSLRLSCAASGITFPANARGWYRPAPGKERELVAAISSSGDSTYYADSVKGRFTISRDNAKNTVYFQMNILKPEDTAVYYCAAKDYVWGQGTQVTVSS | low polyreactivity
QVQLVESGGGLVQAGGSLRLSCAASGITFPAYAMGWYRQAPGKERELVAAISRRGGSTYYADSVKGRFTISRDYAKNTVYLQMNSLKPEDTAVYYCNADIKQRSDRYDYWGQGTQVTVSS | high polyreactivity

Sequence | polyreactivity (PSR sort gate)
QVQLVESGGGLVQAGGSLRLSCAASGITFPDYAMGWYRQAPGKERELVATISSSGGNTYYADSVKGRFTISRDNAKNTVYLQMNSLKPEDTAVYYCATVSYYWGYDYWGQGTQVTVSS | low polyreactivity
QVQLVESGGGLVQAGGSLRLSCAASGITFPDYDMGWYRQAPGKERELVAAITYRSGSTYYADSVKGRFTISRDNAKNTVYLQMNSLKPEDTAVYYCNKYGQVPGYFSLDYWGQGTQVTVSS | high polyreactivity
QVQLVESGGGLVQAGGSLRLSCAASGITFPGNAMGWYRQAPGKERELVAGISDGDSTNYADSVKARFTISRDNAKNTVYLQMNSLKPEDTAVYYCARDTELYVRWLDYWGQGTQVTVSS | low polyreactivity
QVQLVESGGGLVQAGGSLRLSCAASGITFPGNAMGWYRQAPGKERELVAVISSGTSTNYADSVKGRFTISRDNAKYTVYLQMNSLKPEDTAVYYCATSLYYYPYYYWGQGTQVTVSS | low polyreactivity
QVQLVESGGGLVQAGGSLRLSCAASGITFPGYAMGWYRQAPGKEWELVAAISTSGGSTYYADSVKGRFTISRDNAKNTVYLQMNSLKPEATAVYYCNARLVSYSYEEMDYWGQGTQVTVSS | low polyreactivity
QVQLVESGGGLVQAGGSLRLSCAASGITFPGYARGWYRQAPGKASELVAAIDWSGDGTYYADSVKGRFTISRDNAKNTVYLQMNSLKPEDTAVYYCAKDNYPNHCTVRAVIYDYWGQGTQVTVSS | low polyreactivity
QVQLVESGGGLVQAGGSLRLSCAASGITFPRYAMGWYRQAPGKERELVARITSGGRTNYADSVKGRFTISRDNAKNTVYLQMYSLKPEDTAVYYCNAVGWVRSQVRLGYWGQGTQVTVSS | high polyreactivity
QVQLVESGGGLVQAGGSLRLSCAASGITFPRYVMGWYRQAPGKEREFVAAINYSGGRTYYADSVKGRFTISRDNAKNTVYLQMKSLKPEDTAVYYCAVDLHVWPFWFDYWGQGTQVTVSS | high polyreactivity
QVQLVESGGGLVQAGGSLRLSCAASGITFPSYTMGWYRQAPGKERELVATIRNGGSTYYADSVKGRFTISRDNAKNTVYLHMNSLKPEDTAVYYCAAVPLWDYKVFYYLLYDYWGQGTQVTVSS | low polyreactivity
QVQLVESGGGLVQAGGSLRLSCAASGITFPSYTMGWYRQAPGKERELVATIRNGGSTYYADSVKGRFTISRDNAKNTVYLQMNSLKPEDPAVYYCAAVPLWDYKFFYYLLYDYWGQGTQVTVSS | low polyreactivity
QVQLVESGGGLVQAGGSLRLSCAASGITFPSYVMGWYRQAPGKEREFVAAITGSAGSTYYADSVKGRFTISRDNAKNTVYLQMNSLKPADTAVYYCAARVRYVNPKYYYWGQGTQVTVSS | high polyreactivity
QVQLVESGGGLVQAGGSLRLSCAASGITFQHYSMGWYRQAPGKERELVAAISSSGGRTYYADSVKGRFTISRDNAKNTVYLQMNSLKPEDTAVYYCNGVDRYNRFDSWGQGTQVTVSS | high polyreactivity
QVQLVESGGGLVQAGGSLRLSCAASGITFQKNAMGWYSQAPGKERELVAGITWRGSTYYADSVKGRFTISRDNAKNTVYLQRNSLKPEDTAVYYCAADPFSWYRSVRGEYWGQGTQVTVSS | low polyreactivity
QVQLVESGGGLVQAGGSLRLSCAASGITFQRYAMGWYRQAPGKERELVAAISTNGGTTYYADSVKGRFTISRDTAKNTVYLQMNSLKPEDTAVYYCNAESGYVYYIRYNYWGQGTQVTVSS | high polyreactivity
QVQLVESGGGLVQAGGSLRLSCAASGITFQSNDMGWYRQAPGKERELVAAISWSDDTTYYADSVKGRFTISRDNAKNTVYLQMNSLKPEDTAVYYCAAVYDSKSYYYWGQGTQVTVSS | high polyreactivity
QVQLVESGGGLVQAGGSLRLSCAASGITFQYYAMGWYRQAPGKERELVAAITSSGVSTYYADSVKGRFTISRDNAKNTVYLQMNSLKPEDTAVYYCNTVVRGWSSSAYDYWGQGTQVTVSS | low polyreactivity

From the nanobody polyreactivity screen of Harvey et al. (2022)
